T1: human BCMA (human, UniProt Q02223 1-54)
T1 construct: also called huBCMA; hBCMA
T1 sequence: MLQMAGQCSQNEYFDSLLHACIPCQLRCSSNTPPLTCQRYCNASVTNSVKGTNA


Legend:
human BCMA = target: T1, human BCMA; assay: SPR, immobilised IgG, 37° C
cyBCMA = target: T2, cyBCMA (cynomolgus, UniProt A0A2K5UD97 1-53); assay: SPR, immobilised IgG, 37° C
T2 construct: Soluble analyte in SPR; construct not described; also called cyno BCMA
T2 sequence (A0A2K5UD97 entry or part of it): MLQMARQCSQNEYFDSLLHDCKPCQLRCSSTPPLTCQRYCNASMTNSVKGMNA

Binder | T½ (human BCMA) [min] | T½ (cyBCMA) [min]
L3.PY/L1.AH/H2.HA (antibody, V domains shown, IgG in the assay) VH: EVQLLESGGGLVQPGGSLRLSCAASGFTFGSYAMTWVRQAPGKGLEWVSAISHAGGNTFYADSVKGRFTISRDNSKNTLYLQMNSLRAEDTAVYYCARVSPIASGMDYWGQGTLVTVSS VL: EIVLTQSPGTLSLSPGERATLSCRASQSVSAHYLAWYQQKPGQAPRLLIYGASSRATGIPDRFSGSGSGTDFTLTISRLEPEDFAVYYCQHYPYPPSFTFGQGTKVEIK | 6.37 | 2.63
L3.PY/L1.PH/P6E01 (antibody, V domains shown, IgG in the assay) VH: EVQLLESGGGLVQPGGSLRLSCAASGFTFGSYAMTWVRQAPGKGLEWVSAISGSGGNTFYADSVKGRFTISRDNSKNTLYLQMNSLRAEDTAVYYCARVSPIASGMDYWGQGTLVTVSS VL: EIVLTQSPGTLSLSPGERATLSCRASQSVSPHYLAWYQQKPGQAPRLLIYGASSRATGIPDRFSGSGSGTDFTLTISRLEPEDFAVYYCQHYPYPPSFTFGQGTKVEIK | 12.7 | 1.46
L3.PY/L1.PS/H3.AQ (antibody, V domains shown, IgG in the assay) VH: EVQLLESGGGLVQPGGSLRLSCAASGFTFGSYAMTWVRQAPGKGLEWVSAISGSGGNTFYADSVKGRFTISRDNSKNTLYLQMNSLRAEDTAVYYCARVSPIAAQMDYWGQGTLVTVSS VL: EIVLTQSPGTLSLSPGERATLSCRASQSVSSSYPSWYQQKPGQAPRLLIYGASSRATGIPDRFSGSGSGTDFTLTISRLEPEDFAVYYCQHYPYPPSFTFGQGTKVEIK | 6.46 | 2.67
L3.PY/L1.AH/H2.QL (antibody, V domains shown, IgG in the assay) VH: EVQLLESGGGLVQPGGSLRLSCAASGFTFGSYAMTWVRQAPGKGLEWVSAISGSGGNTFYADQLKGRFTISRDNSKNTLYLQMNSLRAEDTAVYYCARVSPIASGMDYWGQGTLVTVSS VL: EIVLTQSPGTLSLSPGERATLSCRASQSVSAHYLAWYQQKPGQAPRLLIYGASSRATGIPDRFSGSGSGTDFTLTISRLEPEDFAVYYCQHYPYPPSFTFGQGTKVEIK | 7.22 | 1.21
L3.PY/L1.AH/H3.AE (antibody, V domains shown, IgG in the assay) VH: EVQLLESGGGLVQPGGSLRLSCAASGFTFGSYAMTWVRQAPGKGLEWVSAISGSGGNTFYADSVKGRFTISRDNSKNTLYLQMNSLRAEDTAVYYCARVSPIAAEMDYWGQGTLVTVSS VL: EIVLTQSPGTLSLSPGERATLSCRASQSVSAHYLAWYQQKPGQAPRLLIYGASSRATGIPDRFSGSGSGTDFTLTISRLEPEDFAVYYCQHYPYPPSFTFGQGTKVEIK | 6.7 | 3.25
L3.PY/L1.PS/H2.DY (antibody, V domains shown, IgG in the assay) VH: EVQLLESGGGLVQPGGSLRLSCAASGFTFGSYAMTWVRQAPGKGLEWVSAIDYSGGNTFYADSVKGRFTISRDNSKNTLYLQMNSLRAEDTAVYYCARVSPIASGMDYWGQGTLVTVSS VL: EIVLTQSPGTLSLSPGERATLSCRASQSVSSSYPSWYQQKPGQAPRLLIYGASSRATGIPDRFSGSGSGTDFTLTISRLEPEDFAVYYCQHYPYPPSFTFGQGTKVEIK | 3.2 | 3.06
L3.PY/L1.AH/H2.LT (antibody, V domains shown, IgG in the assay) VH: EVQLLESGGGLVQPGGSLRLSCAASGFTFGSYAMTWVRQAPGKGLEWVSAISLTGGNTFYADSVKGRFTISRDNSKNTLYLQMNSLRAEDTAVYYCARVSPIASGMDYWGQGTLVTVSS VL: EIVLTQSPGTLSLSPGERATLSCRASQSVSAHYLAWYQQKPGQAPRLLIYGASSRATGIPDRFSGSGSGTDFTLTISRLEPEDFAVYYCQHYPYPPSFTFGQGTKVEIK | 9.38 | 3.91
L3.PY/L1.PS/H2.HA (antibody, V domains shown, IgG in the assay) VH: EVQLLESGGGLVQPGGSLRLSCAASGFTFGSYAMTWVRQAPGKGLEWVSAISHAGGNTFYADSVKGRFTISRDNSKNTLYLQMNSLRAEDTAVYYCARVSPIASGMDYWGQGTLVTVSS VL: EIVLTQSPGTLSLSPGERATLSCRASQSVSSSYPSWYQQKPGQAPRLLIYGASSRATGIPDRFSGSGSGTDFTLTISRLEPEDFAVYYCQHYPYPPSFTFGQGTKVEIK | 1.09 | 4.3
L3.PY/L1.FF/P6E01 (antibody, V domains shown, IgG in the assay) VH: EVQLLESGGGLVQPGGSLRLSCAASGFTFGSYAMTWVRQAPGKGLEWVSAISGSGGNTFYADSVKGRFTISRDNSKNTLYLQMNSLRAEDTAVYYCARVSPIASGMDYWGQGTLVTVSS VL: EIVLTQSPGTLSLSPGERATLSCRASQSVSSFFLAWYQQKPGQAPRLLIYGASSRATGIPDRFSGSGSGTDFTLTISRLEPEDFAVYYCQHYPYPPSFTFGQGTKVEIK | 8.18 | 1.96
L3.PY/L1.AH/P6E01 (antibody, V domains shown, IgG in the assay) VH: EVQLLESGGGLVQPGGSLRLSCAASGFTFGSYAMTWVRQAPGKGLEWVSAISGSGGNTFYADSVKGRFTISRDNSKNTLYLQMNSLRAEDTAVYYCARVSPIASGMDYWGQGTLVTVSS VL: EIVLTQSPGTLSLSPGERATLSCRASQSVSAHYLAWYQQKPGQAPRLLIYGASSRATGIPDRFSGSGSGTDFTLTISRLEPEDFAVYYCQHYPYPPSFTFGQGTKVEIK | 9.19 | 2.02
L3.PY/L1.PS/H3.AE (antibody, V domains shown, IgG in the assay) VH: EVQLLESGGGLVQPGGSLRLSCAASGFTFGSYAMTWVRQAPGKGLEWVSAISGSGGNTFYADSVKGRFTISRDNSKNTLYLQMNSLRAEDTAVYYCARVSPIAAEMDYWGQGTLVTVSS VL: EIVLTQSPGTLSLSPGERATLSCRASQSVSSSYPSWYQQKPGQAPRLLIYGASSRATGIPDRFSGSGSGTDFTLTISRLEPEDFAVYYCQHYPYPPSFTFGQGTKVEIK | 7.93 | 2.8
L3.PY/L1.PS/H2.LT (antibody, V domains shown, IgG in the assay) VH: EVQLLESGGGLVQPGGSLRLSCAASGFTFGSYAMTWVRQAPGKGLEWVSAISLTGGNTFYADSVKGRFTISRDNSKNTLYLQMNSLRAEDTAVYYCARVSPIASGMDYWGQGTLVTVSS VL: EIVLTQSPGTLSLSPGERATLSCRASQSVSSSYPSWYQQKPGQAPRLLIYGASSRATGIPDRFSGSGSGTDFTLTISRLEPEDFAVYYCQHYPYPPSFTFGQGTKVEIK | 2.49 | 2.81
L3.PY/L1.AH/H2.YQ (antibody, V domains shown, IgG in the assay) VH: EVQLLESGGGLVQPGGSLRLSCAASGFTFGSYAMTWVRQAPGKGLEWVSAISYQGGNTFYADSVKGRFTISRDNSKNTLYLQMNSLRAEDTAVYYCARVSPIASGMDYWGQGTLVTVSS VL: EIVLTQSPGTLSLSPGERATLSCRASQSVSAHYLAWYQQKPGQAPRLLIYGASSRATGIPDRFSGSGSGTDFTLTISRLEPEDFAVYYCQHYPYPPSFTFGQGTKVEIK | 6 | 2.68
L3.PY/L1.PS/H2.YQ (antibody, V domains shown, IgG in the assay) VH: EVQLLESGGGLVQPGGSLRLSCAASGFTFGSYAMTWVRQAPGKGLEWVSAISYQGGNTFYADSVKGRFTISRDNSKNTLYLQMNSLRAEDTAVYYCARVSPIASGMDYWGQGTLVTVSS VL: EIVLTQSPGTLSLSPGERATLSCRASQSVSSSYPSWYQQKPGQAPRLLIYGASSRATGIPDRFSGSGSGTDFTLTISRLEPEDFAVYYCQHYPYPPSFTFGQGTKVEIK | 2.69 | 3.09
L3.PY/L1.AH/H3.YA (antibody, V domains shown, IgG in the assay) VH: EVQLLESGGGLVQPGGSLRLSCAASGFTFGSYAMTWVRQAPGKGLEWVSAISGSGGNTFYADSVKGRFTISRDNSKNTLYLQMNSLRAEDTAVYYCARVSPIYAGMDYWGQGTLVTVSS VL: EIVLTQSPGTLSLSPGERATLSCRASQSVSAHYLAWYQQKPGQAPRLLIYGASSRATGIPDRFSGSGSGTDFTLTISRLEPEDFAVYYCQHYPYPPSFTFGQGTKVEIK | 7.73 | 2.2
L3.PY/L1.AH/H3.AQ (antibody, V domains shown, IgG in the assay) VH: EVQLLESGGGLVQPGGSLRLSCAASGFTFGSYAMTWVRQAPGKGLEWVSAISGSGGNTFYADSVKGRFTISRDNSKNTLYLQMNSLRAEDTAVYYCARVSPIAAQMDYWGQGTLVTVSS VL: EIVLTQSPGTLSLSPGERATLSCRASQSVSAHYLAWYQQKPGQAPRLLIYGASSRATGIPDRFSGSGSGTDFTLTISRLEPEDFAVYYCQHYPYPPSFTFGQGTKVEIK | 5.85 | 2.9
L3.PY/L1.PS/H2.QL (antibody, V domains shown, IgG in the assay) VH: EVQLLESGGGLVQPGGSLRLSCAASGFTFGSYAMTWVRQAPGKGLEWVSAISGSGGNTFYADQLKGRFTISRDNSKNTLYLQMNSLRAEDTAVYYCARVSPIASGMDYWGQGTLVTVSS VL: EIVLTQSPGTLSLSPGERATLSCRASQSVSSSYPSWYQQKPGQAPRLLIYGASSRATGIPDRFSGSGSGTDFTLTISRLEPEDFAVYYCQHYPYPPSFTFGQGTKVEIK | 0.04 | 18.2
L3.PY/L1.PS/H2.QR (antibody, V domains shown, IgG in the assay) VH: EVQLLESGGGLVQPGGSLRLSCAASGFTFGSYAMTWVRQAPGKGLEWVSAISGSGGNTFYADQRKGRFTISRDNSKNTLYLQMNSLRAEDTAVYYCARVSPIASGMDYWGQGTLVTVSS VL: EIVLTQSPGTLSLSPGERATLSCRASQSVSSSYPSWYQQKPGQAPRLLIYGASSRATGIPDRFSGSGSGTDFTLTISRLEPEDFAVYYCQHYPYPPSFTFGQGTKVEIK | 0.11 | 17.2
L3.PY/L1.AH/H2.QR (antibody, V domains shown, IgG in the assay) VH: EVQLLESGGGLVQPGGSLRLSCAASGFTFGSYAMTWVRQAPGKGLEWVSAISGSGGNTFYADQRKGRFTISRDNSKNTLYLQMNSLRAEDTAVYYCARVSPIASGMDYWGQGTLVTVSS VL: EIVLTQSPGTLSLSPGERATLSCRASQSVSAHYLAWYQQKPGQAPRLLIYGASSRATGIPDRFSGSGSGTDFTLTISRLEPEDFAVYYCQHYPYPPSFTFGQGTKVEIK | 6.39 | 2.35
L3.PY/L1.PS/H3.TAQ (antibody, V domains shown, IgG in the assay) VH: EVQLLESGGGLVQPGGSLRLSCAASGFTFGSYAMTWVRQAPGKGLEWVSAISGSGGNTFYADSVKGRFTISRDNSKNTLYLQMNSLRAEDTAVYYCTRVSPIAAQMDYWGQGTLVTVSS VL: EIVLTQSPGTLSLSPGERATLSCRASQSVSSSYPSWYQQKPGQAPRLLIYGASSRATGIPDRFSGSGSGTDFTLTISRLEPEDFAVYYCQHYPYPPSFTFGQGTKVEIK | 4.7 | 2.09
